Assays:
[1] = tested on: T1, His-ArsR (Bacillus sp. CDB3), ORF:1234e343; assay: EMSA; settings: 10 mM Tris-HCl pH 7.6, 80 mM KCl, 0.2 mM EDTA, 0.2 mM DTT, 10% glycerol, 0.75 µM BSA, 30 µL, on ice 30 min; 6% native acrylamide gel in TBE pH 8.3
T1 sequence: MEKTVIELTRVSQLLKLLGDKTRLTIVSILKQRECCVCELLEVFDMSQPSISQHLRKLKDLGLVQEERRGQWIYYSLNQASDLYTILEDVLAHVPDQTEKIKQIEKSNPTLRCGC

[2] = tested on: T2, His-ArsD (Bacillus sp. CDB3), ORF:bd8c364d; assay: EMSA; settings: 10 mM Tris-HCl pH 7.6, 80 mM KCl, 0.2 mM EDTA, 0.2 mM DTT, 10% glycerol, 0.75 µM BSA, 30 µL, on ice 30 min; 6% native acrylamide gel in TBE pH 8.3
T2 sequence: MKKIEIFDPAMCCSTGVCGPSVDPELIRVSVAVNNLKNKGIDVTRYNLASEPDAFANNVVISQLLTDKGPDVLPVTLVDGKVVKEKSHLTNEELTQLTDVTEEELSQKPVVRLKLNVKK

Sequence | binding [1] | binding [2]
TGAGACTGCTATGAAAGAAAACGGTGTTTCAACATTACGTTTTACATTTGATGGTGCTGGATGCTGTGGCCCTAGTTACGGTATTAATTTAGGTGAAGCACAAGAAAATGATGTCACAGAAACAGTCTAGAC (double strand) [proN] | no binding | 
TTCAGTTGAATATATAAGCGGTTAATTATATACTTATTTCAAGAGGGAGAGAAAATTAAATATGAATCCATTTAATGAATATTACGTTTAATTTTTACTCAACATATAAGTATATGCTTATGCAATTATGAAAAGGAGGTATAGATATGGCTCTAGATA (double strand) [proR] | binds | no binding

Reference: paper PMC4562236
